Measured values: patent US8357523B2, “Beta-glucosidase variant enzymes and related polynucleotides” (Codexis, Inc., priority 2009, dated 2013)

What was measured:
Type in all cases: biochemical
[1] = Saccharification of microcrystalline cellulose by Trichoderma reesei whole cellulase supplemented with β-glucosidase; details: 1 g/L TRWC alone or 25% of TRWC substituted with the β-glucosidase; 200 g/L Avicel, 100 g/L xylose, pH5.5, 55° C., 48 hours
Text: FIG. 12 illustrates the impact of supplementing a commercially available Trichoderma reesei whole cellulose (“TRWC”) mixture with a CelA variant of the present invention. Compositions containing TRWC were supplemented with β-glucosdiases CelA Variant No. 264 (“Cel var1”), CelA Variant No. 366 (“Cel var2”), and a commercially available Aspergillus niger β-glucosidase (“ANBG”) in a ratio of 3:1 TRWC to β-glucosidase. The effectiveness of each composition at hydrolyzing microcrystalline cellulose was evaluated as described in Example 15. A plot of glucose and cellobiose concentration (g/L) vs. cellulase composition is depicted. The control composition was TRWC with no added β-glucosidase.
The impact of adding a CelA variant of the present invention to commercially available cellulose mixtures and microcrystalline cellulose, Avicel™, was evaluated. In the test reactions, 1 g/L Trichoderma reesei whole cellulose (“TRWC”, Sigma catalog #C85456-10KU (ATCC 26921)) was used to convert 200 g/L of the microcrystalline cellulose Avicel™ (200 mM Sodium acetate; 100 g/L xylose, pH5.5 and 55° C.). The amount of glucose was measured after 48 hours of reaction. As a comparison, 25% of the TRWC was replaced with a β-glucosidase: Variant No. 264 (“Cel var1”), Variant No. 366 (“Cel var2”), or with the commercially available cellobiase, Aspergillus niger beta-glucosidase (“ANBG”, Sigma catalog #49291-1G). […]

[2] = Glucose inhibition (glucose tolerance), cellobiose assay with cellobiose consumption determined by HPLC; details: pH 5, 55° C.; glucose concentration at which enzyme activity is 50% of the activity with no glucose
[3] = Activity profile at different temperatures and pH using cellobiose (10 g/L) as substrate
Procedure: β-glucosidase activity was also determined using a cellobiose assay, which used cellobiose as substrate. In a total volume of 100 μL, 25 μL clear media supernatant containing CelA enzyme was added to 10 g/L cellobiose (Fluka Cat. No. 22150, Sigma-Aldrich, Inc., St. Louis, Mo.) in 100 mM sodium phosphate buffer (pH 6-7) or sodium acetate buffer (pH 5-5.5). The reaction was incubated at 45-70° C. for an appropriate time (25 minutes to overnight depending on the enzyme concentration) while shaking. Glucose production was determined using an enzymatic glucose assay (K-GLUC, Megazyme, Ireland). 10 μl of each reaction was added to 190 μl GOPOD reagent (supplied as part of the K-GLUC assay kit). The reaction was incubated at 45° C. for 20 minutes and the absorbance of the solution was measured at 510 nm. The GOPOD reagent contains 50 mM Potassium phosphate buffer pH7.4, 0.011M p-hydroxybenzoic acid, 0.008% w/v sodium azide, glucose oxidase (>12,000 U/L), peroxidase (>650 U/L) and 80 mg/L 4-aminoantipyrine. The glucose oxidase enzyme in the reagent reacts with any glucose present in the sample and produces hydrogen peroxide which then reacts with the 4-aminoantipyrine to produce a quinoneimine dye in quantities proportionate with the amount of glucose present and can be measured spectrophotometrically at 510 nm. Detectable β-glucosidase activity was observed under high throughput screening conditions (i.e., pH 7, 50° C.).
The native CelA activity profile was investigated at different temperatures (40-55° C.) and pH (5.0-8.0) using cellobiose (10 g/L) as a substrate. The experimental and analytical procedures are described in Example 5.
The activity profiles for Variant Nos. 264, 366, 391, 463, and 529 were determined at different temperatures and pH using cellobiose (10 g/L) as a substrate. The experimental and analytical procedures are described in Example 5, incubating the variant with cellobiose at temperatures in the range of 45-80. The results are depicted in FIGS. 7-11. […] The temperature and pH profile for this variant is depicted in FIG. 7. […] The temperature and pH profile for this variant is depicted in FIG. 8. […] The temperature and pH profile for this variant is depicted in FIG. 9. […] (with the pH 6 optimum determined by extrapolation). The temperature and pH profile for this variant is depicted in FIG. 10. […] The temperature and pH profile for this variant is depicted in FIG. 11.

[4] = Enzyme stability: residual activity on pNPG after pre-incubation at high temperature and low pH; details: residual activity on pNPG at pH 7, 30° C.
Procedure: Residual activity is determined by exposing the enzyme to stress conditions of elevated temperature for a period of time and then determining the β-glucosidase activity. The β-glucosidase activity of the enzyme exposed to stress conditions (“a”) is compared to that of a control in which the enzyme is not exposed to the stress conditions (“b”), and residual activity is equal to the ratio a/b. Exemplary conditions for determining thermostability are provided in Examples 9 and 13. In one embodiment the enzymes are exposed to stress conditions of 50° C. at pH 5.5 or 55° C. at pH 5.0 or 55° C. at pH 5.5, or 65° C. at pH 5.0 for about 1 hour, and assayed at 30° C., pH 7, for about 0.1 hour.
(§1) A colorimetric pNPG (p-nitrophenyl-(β-D-glucopyranoside)-based assay was used for measuring β-glucosidase activity. In a total volume of 100 μL, 20 μL clear media supernatant containing β-glucosidase enzyme was added to 4 mM pNPG (Sigma-Aldrich, Inc. St. Louis, Mo.) solution in 50 mM sodium phosphate buffer at pH6.5. The reactions were incubated at pH 6.5, 45° C. for 1 hour. The reaction mixture was quenched with 100 μL of 1M sodium carbonate pH 11 solution. The absorbance of the solution was measured at 405 nm to determine the conversion of pNPG to p-nitrophenol. The release of p-nitrophenol (ε=17,700 M−1 cm−1) was measured at 405 nm to calculate β-glucosidase activity. Detectable β-glucosidase activity was observed under high throughput screening conditions (pH 7, 50° C.).
Four CelA variants and wildtype CelA were characterized to determine their stabilities at high temperature (55° C.) and low pH (pH5.5) using the method of Example 5A. The samples containing various CelA variant enzymes were pre-incubated at pH 5.5, 55° C. for 0-6 hrs. The residual enzyme activity after the thermal challenge was measured using pNPG as substrate at pH 7, 30° C. for 1 hr. […] The mutations listed in the table are indicated relative to SEQ ID NO: 4, the wildtype CelA. These sequences included residues GTS prior to the N-terminus of SEQ ID NO: 4 (prepared as described in Example 1). […]

[5] = pNPG (p-nitrophenyl-β-D-glucopyranoside) assay of β-glucosidase activity; details: media supernatant of shake flask culture
Procedure: A single microbial colony of Bacillus megaterium containing the vector prepared in Example 1 with the CelA gene was inoculated into 3 ml Luria-Bertani (LB) Broth ([…]) containing 10 μg/mL tetracycline. Cells were grown overnight (at least 16 hrs) in an incubator at 37° C. with shaking at 250 rpm. […]
as §1, with “Detectable β-glucosidase activity was observed under high throughput screening conditions (pH 7, 50° C.).” left out

[6] = Activity profile at different temperatures and pH using cellobiose (10 g/L) as substrate; remark: listed apart in the source

B1: T2A + A5T + I14M + N79D + G127N + A143M + H145R + V159E + A198S + V207F + F211Y + I222A + S225C + Q508R + A525T-des[A647-L663] (protein)
chain: SAAITQEGAAPAAMLHPEKWPRPATQRLIDPAVEKRVDALLKQLSVEEKVGQVIQGDIGTITPEDLRKYPLGSILAGGDSGPNGDDRAPPKEWLDLADAFYRVSLEKRPGHTPIPVLFGIDAVHGHNNIGSATIFPHNIALGMTRDPELLRRIGEVTAEEMAATGIDWTFAPALSVVRDDRWGRTYEGFSEDPEIVASYSAAIVEGFQGKYGSKDFMAPGRAVACAKHFLADGGTDQGRDQGDARISEDELIRIHNAGYPPAIDAGVLTVMASFSSWQGIKHHGHKQLLTDVLKGQMGFNGFIVGDWNAHDQVPGCTKFNCPTSLIAGLDMYMAADSWKQLYENTLAQVKDGTIPMARLDDAVRRILRVKVLAGLFEKPAPKDRPGLPGLETLGSPEHRAVGREAVRKSLVLLKNDKGTLPLSPKARVLVAGDGADNIGKQSGGWTISWQGTGNRNDEFPGATSILGGIRDAVADAGGSVEFDVAGQYKTKPDVAIVVFGEEPYAEFRGDVETLEYQPDQKQDLTLLKKLKDQGIPVVAVFLSGRPMWVNPELNASDAFVAAWLPGTEGGGVADVLFTDKAGKVQHDFAGKLSYSWPRTAAQTTVNRGDADYNPLFAYGYGLTYKDKSKVGTLPEESGVPAEARQN
cellobiose and glucose combined yielded in saccharification reaction [1]: comparable results

B2: T2A + A5T + I14M + N79D + G127N + A143M + H145R + V159E + A198S + A207F + F211Y + I222A + S225C + Q508R + A3R + S73A + V177P + I2037-des[A647-L663] (protein)
chain: SARITQEGAAPAAMLHPEKWPRPATQRLIDPAVEKRVDALLKQLSVEEKVGQVIQGDIGTITPEDLRKYPLGAILAGGDSGPNGDDRAPPKEWLDLADAFYRVSLEKRPGHTPIPVLFGIDAVHGHNNIGSATIFPHNIALGMTRDPELLRRIGEVTAEEMAATGIDWTFAPALSVPRDDRWGRTYEGFSEDPEIVASYSAAYVEGFQGKYGSKDFMAPGRAVACAKHFLADGGTDQGRDQGDARISEDELIRIHNAGYPPAIDAGVLTVMASFSSWQGIKHHGHKQLLTDVLKGQMGFNGFIVGDWNAHDQVPGCTKFNCPTSLIAGLDMYMAADSWKQLYENTLAQVKDGTIPMARLDDAVRRILRVKVLAGLFEKPAPKDRPGLPGLETLGSPEHRAVGREAVRKSLVLLKNDKGTLPLSPKARVLVAGDGADNIGKQSGGWTISWQGTGNRNDEFPGATSILGGIRDAVADAGGSVEFDVAGQYKTKPDVAIVVFGEEPYAEFRGDVETLEYQPDQKQDLTLLKKLKDQGIPVVAVFLSGRPMWVNPELNASDAFVAAWLPGTEGGGVADVLFTDKAGKVQHDFAGKLSYSWPRTAAQTTVNRGDADYNPLFAYGYGLTYKDKSKVGTLPEESGVPAEARQN
IC50 for glucose [2]: greater than 100 g/l

B3: CelA wildtype: wildtype Azospirillum irakense β-glucosidase (CelA) (SEQ ID NO: 4) (protein)
chain: STAIAQEGAAPAAILHPEKWPRPATQRLIDPAVEKRVDALLKQLSVEEKVGQVIQGDIGTITPEDLRKYPLGSILAGGNSGPNGDDRAPPKEWLDLADAFYRVSLEKRPGHTPIPVLFGIDAVHGHGNIGSATIFPHNIALGATHDPELLRRIGEVTAVEMAATGIDWTFAPALSVVRDDRWGRTYEGFSEDPEIVAAYSAAIVEGVQGKFGSKDFMAPGRIVASAKHFLADGGTDQGRDQGDARISEDELIRIHNAGYPPAIDAGVLTVMASFSSWQGIKHHGHKQLLTDVLKGQMGFNGFIVGDWNAHDQVPGCTKFNCPTSLIAGLDMYMAADSWKQLYENTLAQVKDGTIPMARLDDAVRRILRVKVLAGLFEKPAPKDRPGLPGLETLGSPEHRAVGREAVRKSLVLLKNDKGTLPLSPKARVLVAGDGADNIGKQSGGWTISWQGTGNRNDEFPGATSILGGIRDAVADAGGSVEFDVAGQYKTKPDVAIVVFGEEPYAEFQGDVETLEYQPDQKQDLALLKKLKDQGIPVVAVFLSGRPMWVNPELNASDAFVAAWLPGTEGGGVADVLFTDKAGKVQHDFAGKLSYSWPRTAAQTTVNRGDADYNPLFAYGYGLTYKDKSKVGTLPEESGVPAEARQNAGIYFRAGALRLPGRFL
pH of optimum activity [3]: 6.0 pH
temperature of optimum activity [3]: 47 °C
% residual activity after 10 mins @ pH 5.5, 55° C. ([4]; pre-incubation 10 mins at pH 5.5, 55° C., 1 hr): 0%
% residual activity after 1 hour @ pH 5.5, 55° C. ([4]; pre-incubation 1 hour at pH 5.5, 55° C.): 0%
% residual activity after 6 hours @ pH 5.5, 55° C. ([4]; pre-incubation 6 hours at pH 5.5, 55° C., 1 hr): 0%
activity using pNPG as substrate [5]: confirmed
CelA activity at pH 4 and 70° C. [6]: detectable
